# Paper PMC3931819
# What was measured:
# [1] = target: 6X(His)-tagged P-domain of the VP1 capsid protein of norovirus VA387 (GII.4 genotype), with the cysteine-rich peptide … (norovirus VA387 (GII.4 genotype)); test: cross-linking; 5 ug protein in HEPES 20 mM pH 7, NaCl 100 mM, MgCl2 10 mM with 0%, 0.5% or 1% glutaraldehyde, 5 min at 37°C; samples with or without boiling resolved on 10% SDS-PAGE
# [2] = target: 6X(His)-tagged P-domain of the VP1 capsid protein of norovirus Norwalk strain (GI.1 genotype), with the CNGRC cysteine-rich domain (Norwalk virus (GI.1 genotype)); test: as above
Substance,stoichiometry N [1],stoichiometry N [2]
"6X(His)-tagged P-domain of the VP1 capsid protein of norovirus VA387 (GII.4 genotype), with the cysteine-rich peptide … (domain or fragment)",> 2,–
"6X(His)-tagged P-domain of the VP1 capsid protein of norovirus Norwalk strain (GI.1 genotype), with the CNGRC cysteine-rich domain (domain or fragment)",–,> 2
